The results in this text go back to patent publication US12644128B2, “Method for producing HSL protein having catalytic activity for 2-oxoglutaric acid-dependently oxidizing 4-HPPD inhibitor” (National Agriculture and Food Research Organization, priority 2017, dated 2026).

Common to all, as to format: biochemical
Assay [1] is described as follows: 4-HPPD inhibitor decomposition activity by HPLC, substrate BBC-OH. The conditions noted are these: for BBC-OH decomposition activity: cell-free synthesized protein, FeCl2, ascorbic acid, 2-oxoglutarate, 30° C. for 3 hours, HPLC. The text has this: (§1) Then, the decomposition reaction of a 4-HPPD inhibitor was examined in the presence of divalent iron ions, 2-oxoglutarate, and molecular oxygen in a test tube by a method described later using the HIS1 protein prepared by this cell-free protein synthesis system.
(§2) Here, in commercially-available wheat germ extracts, dithiothreitol (DTT) is used as a reducing agent and a protein synthesizing reaction liquid also contains DTT. It was confirmed in advance by liquid chromatography that under the coexistence of divalent iron ions and ascorbic acid, which is a stabilizer for the divalent iron ions, DTT generated radical compounds and secondarily affected the enzyme reaction of HIS1 proteins. For this reason, in the present Example, an unreported protein synthesizing reaction system using Tris (2-carboxyethyl) phosphine (TCEP) as a reducing agent instead of DTT was newly constructed, with which the synthesis of HIS1 proteins and the like was conducted to examine the 4-HPPD inhibitor decomposition activity of these. The decomposition activity was analyzed on the reaction liquid of the protein and the 4-HPPD inhibitor using a high-performance liquid chromatography (mobile phase; 0.5% acetic acid water:acetonitrile=65:35, flow rate; 1 mL/min, feeding; isocratic, column; CAPCELL PAK ADME S5).
Then, the amounts of the synthesized proteins obtained in Examples 1 to 4 as described above were estimated as described below, followed by the analysis on the 4-HPPD inhibitor decomposition activities.
Cell-free protein synthesis was conducted without adding [^14C]-Leucine Leucine under the same conditions as those in the estimation of the synthesized amount to estimate the protein concentration of this translation reaction liquid from the above-described estimation. Then, 100 μl of the translation reaction liquid was subjected to buffer exchange to a basic translation buffer (30 mM HEPES-KOH (pH=7.8), 100 mM KOAc) by using the illustra MicroSpin G-25 column (manufactured by GE Healthcare). The amounts of the solution before and after the buffer exchange were measured and the estimated protein concentration was corrected.
An enzyme reaction liquid was prepared by mixing 250 mM of HEPES-KOH (pH 7.0) with a mixture liquid, which contained 0.25 mM of FeCl2, 1.5 mM of ascorbic acid, 1.5 mM of 2-oxoglutarate, and 0.75 mM of a substrate, and a translation reaction liquid, which contained a synthesized enzyme protein, in a proportion of 40% and 60%, respectively. After incubation at 30° C. for 3 hours, 100% methanol in the same amount as the enzyme reaction liquid was added and sufficiently mixed, followed by being left to stand for 5 minutes on ice. This was subjected to centrifuge separation (20, 400 g, 20 minutes, 4° C.) and the supernatant was passed through Cosmonice Filter W (0.45 μm) (manufactured by Nacalai Tesque, Inc.) to obtain a sample for high-performance liquid chromatography. The analysis on the substrate and the product before and after the enzyme reaction was conducted by loading a column_Pro C18 (150×4.6 mm I.D.) (manufactured by YMC Co., Ltd.) on a high-performance liquid chromatography device_ELITE LaChrom L-2000 series (manufactured by Hitachi, Ltd.). Elution was conducted at a flow speed of 1 mL/min and a column temperature of 40° C. under solvent conditions of acetonitrile:water (1% acetic acid)=55:45 or 50:50 (BBC-OH), acetonitrile:water (1% acetic acid)=45:55 (Sulcotrione), acetonitrile:water (1% acetic acid)=45:55 (Mesotrione), acetonitrile:water (1% acetic acid)=55:45 or 50:50 (tefryltrone), and acetonitrile:water (1% acetic acid)=55:45 or 50:50 (Tembotrione), respectively, and the compound was detected at an ultraviolet wavelength of 286 nm.
(§3) Note that the 5-point scale of the decomposition activity in each of FIGS. 12 to 17 is based on a relative value of the degree of decrease in a substrate-derived peak area detected by HPLC where the degree of decrease in the HIS1 protein was designated by 5. […]

The nature of assay [2]: 4-HPPD inhibitor decomposition activity by HPLC, substrate sulcotrione.
From the text: as §1
as §2, with “S5). […]” for “S5).”
(§4) Cell-free protein synthesis was conducted without adding [^14C]-Leucine Leucine under the same conditions as those in the estimation of the synthesized amount to estimate the protein concentration of this translation reaction liquid from the above-described estimation. […] The amounts of the solution before and after the buffer exchange were measured and the estimated protein concentration was corrected. […]
as §3

A short description of assay [3]: 4-HPPD inhibitor decomposition activity by HPLC, substrate tefuryltrione.
From the text: as §1
as §2, with “S5). […]” for “S5).”
as §4, §3

Setting [4] is: cell-free synthesized protein, FeCl2, ascorbic acid, 2-oxoglutarate, 30° C. for 3 hours, HPLC.

B1: SbHSL1 protein: sorghum-derived HSL protein, typically a protein having an amino acid sequence of SEQ ID NO: 22 (protein)
chain: MAGESWKVPTPVKDLAALVEEPPSQFVQREEDRPGSLMLAADMPDPLPIVDLDKMSTADEATKLRSALQTWGLFLATNHGIDVSLMEDLMKASREFFNQPLQERQKYSNLREGTRFQLEGYGSDPVIAQDHILDWSDRLQLKVEPEDERNLAQWPKHPESFRDLLHEYATKTKTVMVKILRAMAKTLELDEEDFIDQIGGRPQAYARFNYYPPCPRPELVLGIKAHSDGPLLTVLLVDREVGGLQIQRENKWFNVPSIPHALVINLGDSLEIMSNGIFKSPVHRVVTNAEKERISLAMLYAVQRDNVLEPAPGLLDEKRPAKYRRITEAHFLEGVKEHFSKGMRMIETLKI
modifications: Sorghum bicolor
Consider B1, for which the BBC-OH decomposition activity result in assay [1] is given as “had the decomposition activity, which was less effective than that of the HIS1 protein”.

B2: HIS1 protein: rice 2-oxoglutarate-dependent dioxygenase, typically a protein having an amino acid sequence of SEQ ID NO: 2 (protein, listed as Oryza sativa)
chain: MADESWRAPAIVQELAAAGVEEPPSRYLLREKDRSDVKLVAAELPEPLPVVDLSRLDGAEEATKLRVALQNWGFFLLTNHGVEASLMDSVMNLSREFFNQPIERKQKFSNLIDGKNFQIQGYGTDRVVTQDQILDWSDRLHLRVEPKEEQDLAFWPDHPESFRDVLNKYASGTKRIRDDIIQAMAKLLELDEDYFLDRLNEAPAFARFNYYPPCPRPDLVFGIRPHSDGTLLTILLVDKDVSGLQVQRDGKWSNVEATPHTLLINLGDTMEVMCNGIFRSPVHRVVTNAEKERISLAMLYSVNDEKDIEPAAGLLDENRPARYRKVSVEEFRAGIFGKFSRGERYIDSLRI
B2: the BBC-OH decomposition activity entry in assay [1] is “high decomposition activity”. Also, the “modification product of BBC-OH by mass analysis” value in assay [1] (mass analysis) was “converted into a product with one oxygen atom added”. Besides, the “cofactor dependence of the modification of BBC-OH” value in assay [1] (not shown) was “only in the presence of divalent iron ions and 2-oxoglutarate”. Moreover, the sulcotrione decomposition activity result in assay [2] (setting [4]) was “high decomposition activity”. In addition, the “modification product of sulcotrione by mass analysis” value in assay [2] (mass analysis) is on record as “converted into a product with one oxygen atom added”. Moreover, the tefuryltrione decomposition activity result in assay [3] (setting [4]) is given as “high decomposition activity”. Also, the “modification product of tefuryltrione by mass analysis” value in assay [3] (mass analysis) is “converted into a product with one oxygen atom added”.

B3: ZmHSL2 protein: corn-derived HSL protein, typically a protein having an amino acid sequence of SEQ ID NO: 20 (protein)
chain: MAVESWTVPTPVKDLAALVDEPPSRFVQREEHRPGSLMLAADMPDPLPIVDLNKLSTADEAAKLRSALQTWGLFLATNHGIDASLMEDLMEASREFFHQPLQERQKYSNLREGTRFQLEGYGSDPVVAQDHILDWNDRLQLKVEPEDERSLAQWPKYPESFRDLLHEYASKTKSMRDRILRAMAKILELDEEEFIKQLGASPQAYARFNYYPPCPRPELVLGIKAHSDGPVLTVLLVDREVGGLQVQRENTWFNVPFVPHTLVINLGDSLEIMSNGIFKSPVHRVVTNAEKERISLAMLYAVERDNVLQPAAGLLDEKRPARYRRITEADFLEGVKEHFSKGIRMIETLKI
modifications: Zea mays
As to B3, the BBC-OH decomposition activity result in assay [1] is “had the decomposition activity, which was less effective than that of the HIS1 protein”.

B4: OsHSL2 protein: rice-derived HSL protein, typically a protein having an amino acid sequence of SEQ ID NO: 6 (protein, listed as Oryza sativa)
chain: MADEPWRLPNIVQELAAGVQEPPSRYLQDLAGGDQLAGAEIPEPIPTIDLGRLSGSDGADEAAKLRSALQNWGLFLVSNHGVETSLIDAVIEAAREFFRQPVEEKKKLSNLIDGKRFQIEGYGNDPVQTKDQILDWSDRLHLKVEPECDRNLAFWPTHPKSFRDILHEYTLKIKTVKNDILLALAKLLELDEDCLLNQFSDRAITTARFNYYSPCPRPDLVLGLKPHSDLCALTVLLTDKEVGGLQVLRDGTWYSVPAVRDYSLLINIGVTLEIMTNGTFRAPLHRVVTNAERERMSVAMFYAVDGEKEIEPVAELLGLKQQSARYRGIKGKDLLIGHYEHFSRGGRVVDSLKI
On to B4, for which the BBC-OH decomposition activity result in assay [1] was “only very weak decomposition activity”.
